Molecular target: T1, human IL-12 (human, UniProt P29459 23-219; P29460 23-328)
T1 construct: recombinant human IL-12 heterodimer (p35/p40, disulfide-linked); also called hIL-12; rhIL-12
T1 sequence (looked up) 1: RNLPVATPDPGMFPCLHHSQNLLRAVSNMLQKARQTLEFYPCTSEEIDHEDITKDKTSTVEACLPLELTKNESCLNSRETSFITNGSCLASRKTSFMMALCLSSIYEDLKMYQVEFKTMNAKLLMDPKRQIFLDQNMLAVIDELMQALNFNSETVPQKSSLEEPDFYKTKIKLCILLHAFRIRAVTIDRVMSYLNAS
T1 sequence (looked up) 2: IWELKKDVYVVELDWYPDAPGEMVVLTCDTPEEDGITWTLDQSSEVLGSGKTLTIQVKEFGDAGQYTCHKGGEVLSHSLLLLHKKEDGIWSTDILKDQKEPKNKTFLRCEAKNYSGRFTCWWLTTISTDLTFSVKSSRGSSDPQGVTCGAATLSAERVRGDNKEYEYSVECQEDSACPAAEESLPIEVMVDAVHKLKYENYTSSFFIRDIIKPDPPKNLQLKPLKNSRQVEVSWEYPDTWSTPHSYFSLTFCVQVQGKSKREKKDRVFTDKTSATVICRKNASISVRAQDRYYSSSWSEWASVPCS
Assay: SPR (BIAcore), IL-12 chip
Text: The system utilizes the optical properties of SPR to detect alterations in protein concentrations within a dextran biosensor matrix. Proteins are covalently bound to the dextran matrix at known concentrations. […] To determine the off rate (koff), on rate (kₒₙ), association rate (Ka) and dissociation rate (Kd) constants, BIAcore kinetic evaluation software (version 2.1) was used.

Binder | koff [s⁻¹]
31-A6 (scFv, V domains shown, scFv) VH: QVQLVQSGGGVVQPGRSLRLSCAASGFTFSSYGMHWVRQAPGKGLEWVAFIRYDGSNKYYADSVKGRFTISRDNSKNTLYLQMKSLRAEDTAVYYCKTHGSHDNWGQGTMVTVSS VL: SYVLTQPPSVSGTPGQRVTISCSGGRSNIGSNTVKWYQQLPGTAPKLLIYGNDQRPSGVPDRFSGSKSGTSASLAITGVQAEDEADYYCQSYDRGTHPNLNFGTGTKVTVL | 0.0005
31-B5 (scFv, V domains shown, scFv) VH: QVQLVQSGGGVVQPGRSLRLSCAASGFTFSSYGMHWVRQAPGKGLEWVAFIRYDGSNKYYADSVKGRFTISRDNSKNTLYLQMKSLRAEDTAVYYCKTHGSHDNWGQGTMVTVSS VL: SYVLTQPPSVSGTPGQRVTISCSGGRSNIGSNTVKWYQQLPGTAPKLLIYGNDQRPSGVPDRFSGSKSGTSASLAITGVQAEDEADYYCQSYDRGTHPSISFGTGTKVTVL | 0.0005
43-G2 (scFv, V domains shown, scFv) VH: QVQLVQSGGGVVQPGRSLRLSCAASGFTFSSYGMHWVRQAPGKGLEWVAFIRYDGSNKYYADSVKGRFTISRDNSKNTLYLQMKSLRAEDTAVYYCKTHGSHDNWGQGTMVTVSS VL: SYVLTQPPSVSGTPGQRVTISCSGGRSNIGSNTVKWYQQLPGTAPKLLIYGNDQRPSGVPDRFSGSKSGTSASLAITGVQAEDEADYYCQSYDRGSSPAIMFGTGTKVTVL | 0.0007
43-G3 (scFv, V domains shown, scFv) VH: QVQLVQSGGGVVQPGRSLRLSCAASGFTFSSYGMHWVRQAPGKGLEWVAFIRYDGSNKYYADSVKGRFTISRDNSKNTLYLQMKSLRAEDTAVYYCKTHGSHDNWGQGTMVTVSS VL: SYVLTQPPSVSGTPGQRVTISCSGGRSNIGSNTVKWYQQLPGTAPKLLIYGNDQRPSGVPDRFSGSKSGTSASLAITGVQAEDEADYYCQSYDRGIWPNLNFGTGTKVTVL | 0.0009
70-2 (scFv, V domains shown, scFv) VH: QVQLVQSGGGVVQPGRSLRLSCAASGFTFSSYGMHWVRQAPGKGLEWVAFIRYDGSNKYYADSVKGRFTISRDNSKNTLYLQMKSLRAEDTAVYYCTTHGSYDYWGQGTMVTVSS VL: SYVLTQPPSVSGTPGQRVTISCSGGRSNIGSNTVKWYQQLPGTAPKLLIYGNDQRPSGVPDRFSGSKSGTSASLAITGVQAEDEADYYCQSYDSSLRGSRVFGTGTKVTVL | 0.033
70-7 (scFv, V domains shown, scFv) VH: QVQLVQSGGGVVQPGRSLRLSCAASGFTFSSYGMHWVRQAPGKGLEWVAFIRYDGSNKYYADSVKGRFTISRDNSKNTLYLQMKSLRAEDTAVYYCTTRRRSNYWGQGTMVTVSS VL: SYVLTQPPSVSGTPGQRVTISCSGGRSNIGSNTVKWYQQLPGTAPKLLIYGNDQRPSGVPDRFSGSKSGTSASLAITGVQAEDEADYYCQSYDSSLRGSRVFGTGTKVTVL | 0.129
70-13 (scFv, V domains shown, scFv) VH: QVQLVQSGGGVVQPGRSLRLSCAASGFTFSSYGMHWVRQAPGKGLEWVAFIRYDGSNKYYADSVKGRFTISRDNSKNTLYLQMKSLRAEDTAVYYCTTSGSIDYWGQGTMVTVSS VL: SYVLTQPPSVSGTPGQRVTISCSGGRSNIGSNTVKWYQQLPGTAPKLLIYGNDQRPSGVPDRFSGSKSGTSASLAITGVQAEDEADYYCQSYDSSLRGSRVFGTGTKVTVL | 0.072
101-4 (scFv, V domains shown, scFv) VH: QVQLVQSGGGVVQPGRSLRLSCAASGFTFSSYGMHWVRQAPGKGLEWVAFIRYDGSNKYYADSVKGRFTISRDNSKNTLYLQMKSLRAEDTAVYYCTTSGSIDYWGQGTMVTVSS VL: SYVLTQPPSVSGTPGQRVTISCSGGRSNIGSNTVKWYQQLPGTAPKLLIYGNDQRPSGVPDRFSGSKSGTSASLAITGVQAEDEADYYCQSYDSSLTGSRVFGTGTKVTVL | 0.00976

Results, then the binder that gave them:

koff [s⁻¹] | Binder
0.0445 | 101-5 (scFv, V domains shown, scFv) VH: QVQLVQSGGGVVQPGRSLRLSCAASGFTFSSYGMHWVRQAPGKGLEWVAFIRYDGSNKYYADSVKGRFTISRDNSKNTLYLQMKSLRAEDTAVYYCTTSGSIDYWGQGTMVTVSS VL: SYVLTQPPSVSGTPGQRVTISCSGGRSNIGSNTVKWYQQLPGTAPKLLIYGNDQRPSGVPDRFSGSKSGTSASLAITGVQAEDEADYYCQSYDSSLTGSRVFGTGTKVTVL
0.00854 | 101-9 (scFv, V domains shown, scFv) VH: QVQLVQSGGGVVQPGRSLRLSCAASGFTFSSYGMHWVRQAPGKGLEWVAFIRYDGSNKYYADSVKGRFTISRDNSKNTLYLQMKSLRAEDTAVYYCTTHGSYDYWGQGTMVTVSS VL: SYVLTQPPSVSGTPGQRVTISCSGGRSNIGSNTVKWYQQLPGTAPKLLIYGNDQRPSGVPDRFSGSKSGTSASLAITGVQAEDEADYYCQSYDSSLTGSRVFGTGTKVTVL
0.00752 | 101-14 (scFv, V domains shown, scFv) VH: QVQLVQSGGGVVQPGRSLRLSCAASGFTFSSYGMHWVRQAPGKGLEWVAFIRYDGSNKYYADSVKGRFTISRDNSKNTLYLQMKSLRAEDTAVYYCTTHGSYDYWGQGTMVTVSS VL: SYVLTQPPSVSGTPGQRVTISCSGGRSNIGSNTVKWYQQLPGTAPKLLIYGNDQRPSGVPDRFSGSKSGTSASLAITGVQAEDEADYYCQSYDRGFTGSRVFGTGTKVTVL
0.0029 | 103-1 (scFv, V domains shown, scFv) VH: QVQLVQSGGGVVQPGRSLRLSCAASGFTFSSYGMHWVRQAPGKGLEWVAFIRYDGSNKYYADSVKGRFTISRDNSKNTLYLQMKSLRAEDTAVYYCTTQGRHDNWGQGTMVTVSS VL: SYVLTQPPSVSGTPGQRVTISCSGGRSNIGSNTVKWYQQLPGTAPKLLIYGNDQRPSGVPDRFSGSKSGTSASLAITGVQAEDEADYYCQSYDRGFTGSRVFGTGTKVTVL
0.00058 | 144-F1 (scFv, V domains shown, scFv) VH: QVQLVQSGGGVVQPGRSLRLSCAASGFTFSSYGMHWVRQAPGKGLEWVAFIRYDGSNKYYADSVKGRFTISRDNSKNTLYLQMKSLRAEDTAVYYCKTHGSHDNWGQGTMVTVSS VL: SYVLTQPPSVSGTPGQRVTISCSGGRSNIGSNTVKWYQQLPGTAPKLLIYGNDQRPSGVPDRFSGSKSGTSASLAITGVQAEDEADYYCQSYDRGHHYTTFFGTGTKVTVL
0.005 | 156-1 (scFv, V domains shown, scFv) VH: QVQLVQSGGGVVQPGRSLRLSCAASGFTFSSYGMHWVRQAPGKGLEWVAFIRYDGSNKYYADSVKGRFTISRDNSKNTLYLQMKSLRAEDTAVYYCTTHGSHDTWGQGTMVTVSS VL: SYVLTQPPSVSGTPGQRVTISCSGGRSNIGSNTVKWYQQLPGTAPKLLIYGNDQRPSGVPDRFSGSKSGTSASLAITGVQAEDEADYYCQSYDRDFTGSRVFGTGTKVTVL
0.009 | 156-3 (scFv, V domains shown, scFv) VH: QVQLVQSGGGVVQPGRSLRLSCAASGFTFSSYGMHWVRQAPGKGLEWVAFIRYDGSNKYYADSVKGRFTISRDNSKNTLYLQMKSLRAEDTAVYYCTTHGSHDTWGQGTMVTVSS VL: SYVLTQPPSVSGTPGQRVTISCSGGRSNIGSNTVKWYQQLPGTAPKLLIYGNDQRPSGVPDRFSGSKSGTSASLAITGVQAEDEADYYCQSYDNGFTGARVFGTGTKVTVL
0.003 | 156-6 (scFv, V domains shown, scFv) VH: QVQLVQSGGGVVQPGRSLRLSCAASGFTFSSYGMHWVRQAPGKGLEWVAFIRYDGSNKYYADSVKGRFTISRDNSKNTLYLQMKSLRAEDTAVYYCTTHGSHDNWGQGTMVTVSS VL: SYVLTQPPSVSGTPGQRVTISCSGGRSNIGSNTVKWYQQLPGTAPKLLIYGNDQRPSGVPDRFSGSKSGTSASLAITGVQAEDEADYYCQSYDRDFTGSRVFGTGTKVTVL
0.006 | 156-17 (scFv, V domains shown, scFv) VH: QVQLVQSGGGVVQPGRSLRLSCAASGFTFSSYGMHWVRQAPGKGLEWVAFIRYDGSNKYYADSVKGRFTISRDNSKNTLYLQMKSLRAEDTAVYYCTTHGSHDNWGQGTMVTVSS VL: SYVLTQPPSVSGTPGQRVTISCSGGRSNIGSNTVKWYQQLPGTAPKLLIYGNDQRPSGVPDRFSGSKSGTSASLAITGVQAEDEADYYCQSYDSSLWGTRVFGTGTKVTVL
0.00235 | 170-1 (scFv, V domains shown, scFv) VH: QVQLVQSGGGVVQPGRSLRLSCAASGFTFSSYGMHWVRQAPGKGLEWVAFIRYDGSNKYYADSVKGRFTISRDNSKNTLYLQMKSLRAEDTAVYYCTTSGSYDYWGQGTMVTVSS VL: SYVLTQPPSVSGTPGQRVTISCSGGRSNIGSNTVKWYQQLPGTAPKLLIYGNDQRPSGVPDRFSGSKSGTSASLAITGVQAEDEADYYCQSYDRGFTGFKVFGTGTKVTVL
0.00044 | 170-11 (scFv, V domains shown, scFv) VH: QVQLVQSGGGVVQPGRSLRLSCAASGFTFSSYGMHWVRQAPGKGLEWVAFIRYDGSNKYYADSVKGRFTISRDNSKNTLYLQMKSLRAEDTAVYYCTTSGSYDYWGQGTMVTVSS VL: SYVLTQPPSVSGTPGQRVTISCSGGRSNIGSNTVKWYQQLPGTAPKLLIYGNDQRPSGVPDRFSGSKSGTSASLAITGVQAEDEADYYCQSYDRGLTGFRVFGTGTKVTVL
0.00443 | 170-15 (scFv, V domains shown, scFv) VH: QVQLVQSGGGVVQPGRSLRLSCAASGFTFSSYGMHWVRQAPGKGLEWVAFIRYDGSNKYYADSVKGRFTISRDNSKNTLYLQMKSLRAEDTAVYYCTTSGSYDYWGQGTMVTVSS VL: SYVLTQPPSVSGTPGQRVTISCSGGRSNIGSNTVKWYQQLPGTAPKLLIYGNDQRPSGVPDRFSGSKSGTSASLAITGVQAEDEADYYCQSYDRGLTGYRLFGTGTKVTVL

— patent publication US20150037348A1 (AbbVie / Abbott, published 2015)
